In data set [1] the target is T1, Plk 323-499 (two-hybrid bait, wild-type polo box) (murine (mammalian Plk), UniProt Q07832 323-499).
T1 construct: Bait fusion expressed in yeast
Nature of the data set: yeast two-hybrid screen, mouse embryo cDNA library. From the text: Using the terminology of the two-hybrid system (Vojtek et al., 1993), vectors were engineered to have Plk carboxy terminal constructs as bait (see FIG. 11) and a mouse embryo 9.5/10.5-day cDNA library as prey. (A different strategy was used to identify TCTP/p23, i.e., full length Plk and a cDNA library from HeLa cells with inserts of 1–2 kb in the Examples, infra).

Data set [2] addresses T2, GST-fusion protein of full-length TCTP/p23.
T2 chain: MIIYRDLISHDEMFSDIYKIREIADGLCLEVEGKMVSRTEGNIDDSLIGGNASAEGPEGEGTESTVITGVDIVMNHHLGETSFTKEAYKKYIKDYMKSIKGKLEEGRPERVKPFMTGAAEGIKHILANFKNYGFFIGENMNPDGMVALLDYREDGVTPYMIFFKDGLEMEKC

The target of another data set is HA-Snk (UniProt P53351 1-682). Put plainly: interaction of recombinant proteins produced in insect cells with baculovirus (GST-fusion). The source says: Full-length TCTP/p23 (SEQ ID No:27) cDNA was isolated and cloned into a pGEX vector to produce a GST-fusion protein.
Chain of HA-Snk (P53351 whole entry, the tested form may be a part): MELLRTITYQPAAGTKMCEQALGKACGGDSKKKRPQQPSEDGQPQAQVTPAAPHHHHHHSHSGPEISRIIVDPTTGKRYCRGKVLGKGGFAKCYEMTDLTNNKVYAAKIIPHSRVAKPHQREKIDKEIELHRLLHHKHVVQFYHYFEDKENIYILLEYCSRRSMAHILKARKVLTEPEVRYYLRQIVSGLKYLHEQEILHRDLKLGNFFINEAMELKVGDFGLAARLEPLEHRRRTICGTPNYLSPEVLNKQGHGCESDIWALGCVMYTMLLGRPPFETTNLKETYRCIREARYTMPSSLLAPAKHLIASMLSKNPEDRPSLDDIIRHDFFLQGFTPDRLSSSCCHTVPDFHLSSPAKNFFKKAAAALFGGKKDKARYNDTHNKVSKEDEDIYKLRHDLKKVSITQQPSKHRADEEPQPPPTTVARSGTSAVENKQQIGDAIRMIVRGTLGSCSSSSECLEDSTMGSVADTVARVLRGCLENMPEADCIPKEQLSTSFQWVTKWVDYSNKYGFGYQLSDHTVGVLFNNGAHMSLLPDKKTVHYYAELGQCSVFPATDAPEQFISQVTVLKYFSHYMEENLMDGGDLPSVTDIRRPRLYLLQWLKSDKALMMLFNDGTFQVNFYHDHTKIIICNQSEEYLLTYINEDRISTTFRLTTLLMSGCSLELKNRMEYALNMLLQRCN
Data set [3] deals with T1, Plk 323-499 (two-hybrid bait, wild-type …). Put plainly: yeast two-hybrid.

B1: Plk 500-603 (two-hybrid prey clone) (other, not shown: large carriers)
chain: REGDELARLPYLRTWFRTRSAIILHLSNGTVQINFFQDHTKLILCPLMAAVTYINEKRDFQTYRLSLLEEYGCCKELASRLRYARTMVDKLLSSRSASNRLKAS
Turning to B1, the binding result in data set [1] was “binds”.

B2: HA-Plk (protein)
chain: MNAAAKAGKLARAPADLGKGGVPGDAVPGAPVAAPLAKEIPEVLVDPRSRRQYVRGRFLGKGGFAKCFEISDADTKEVFAGKIVPKSLLLKPHQKEKMSMEISIHRSLAHQHVVGFHDFFEDSDFVFVVLELCRRRSLLELHKRRKALTEPEARYYLRQIVLGCQYLHRNQVIHRDLKLGNLFLNEDLEVKIGDFGLATKVEYEGERKKTLCGTPNYIAPEVLSKKGHSFEVDVWSIGCIMYTLLVGKPPFETSCLKETYLRIKKNEYSIPKHINPVAASLIQKMLQTDPTARPTIHELLNDEFFTSGYIPARLPITCLTIPPRFSIAPSSLDPSSRKPLKVLNKGVENPLPDRPREKEEPVVRETNEAIECHLSDLLQQLTSVNASKPSERGLVRQEEAEDPACIPIFWVSKWVDYSDKYGLGYQLCDNSVGVLFNDSTRLILYNDGDSLQYIERDGTESYLTVSSHPNSLMKKITLLNYFRNYMSEHLLKAGANITPREGDELARLPYLRTWFRTRSAIILHLSNGTVQINFFQDHTKLILCPLMAAVTYINEKRDFQTYRLSLLEEYGCCKELASRLRYARTMVDKLLSSRSASNRLKAS
Turning to B2, the “phosphorylation of TCTP/p23 by Plk kinase activity” value in data set [2] is “phosphorylated by Plk on serine residues at positions 46 and 64”.

B3: GST-fusion protein of full-length TCTP/p23 (other)
chain: T2 chain
notes: Full-length TCTP/p23 cDNA cloned into a pGEX vector to produce a GST-fusion protein; also called GST-TCTP/p23; not shown: glutathione-S-transferase (GST) from pGEX vector
Take B3: the binding result with HA-Snk is “no binding”.

B4: chaperonin-containing-TCP (CCT) epsilon subunit, amino acid residues 13-139, two-hybrid prey clone (other, not shown: large carriers)
chain: GRPFLIIKDQDRKSRLMGLEALKSHIMAAKAVANTMRTSLGPNGLDKMMVDKDGDVTITNDGATILSMMDVDHQIAKLMVELSKSQDDEIGDGTTGVVVLAGALLEEAEQLLDRGIHPIRIADGYEQ
notes: also called CCT-ε
On to B4, for which the binding result in data set [3] was “binds”.
